In patent publication US20190374506:

System: Flag-PTEN

WW domain containing E3 ubiquitin protein ligase 1 (WWP1)
in vitro ubiquitination of Flag-PTEN (E1, E2, ubiquitin; western blot with anti-PTEN antibody), WWP1 alone: incubation of WWP1 alone only slightly triggered PTEN poly-ubiquitination | in vitro ubiquitination of Flag-PTEN, WWP1 and NEDD4-1 both present: in the presence of both WWP1 and NEDD4-1, PTEN was robustly K27-linked poly-ubiquitinated
